Assays:
[1] = target: T1, HLA-A*02:01 on a single antigen bead (Homo sapiens, HLA-A*02:01, strain); test: single antigen flow bead assay (Luminex); LabScreen single-antigen LS1A04 beads with 97 MHC class I alleles, Luminex 100 analyser; positivity threshold MFI 1000; conditions: both partners purified
T1 construct: beta-2-microglobulin; source: bought: One Lambda (LabScreen single-antigen LS1A04); copies: + +

[2] = target: T2, HLA-A2 on stably transfected B721.221 cells (Homo sapiens, HLA-A*02:01, strain); test: flow cytometry on cells; 150,000 BLCL cells with various concentrations of purified mAbs in PBS 0.5% BSA, 30 min at room temperature; PE goat anti-human IgG; conditions: one partner purified
T2 construct: beta-2-microglobulin of the cells; also called 721.221(A2); B721.221 A2; source: B721.221 cells, stably transfected, on the cell surface; copies: + +

[3] = target: T3, HLA-A*02:01 on BLCL HEN cells (Homo sapiens, HLA-A*02:01, strain); test: as above; conditions: one partner purified
T3 construct: HLA-A*02:01 naturally expressed on BLCL HEN; beta-2-microglobulin of the cells; also called BLCL HEN expressing HLA-A2; source: endogenous, on BLCL HEN cells (HLA-A*02:01/ HLA-A*0101); copies: + +

Measured: binding result

B1: C4.4 (antibody, V domains shown)
VH: EVQLVESGAEVKKPGESLKISCKASGYRFTNYWIGWVRQMPGKGLEWMGIIYPYHSDTQYTPSFQGQVTISADESTTTAYLHLSSLKASDTAIYYCVRLRGDFVPVVFAPYFDSWGQGTLVT
VL: QSALTQPRSVSGSPGQSVTISCTGSRSDAHTFNYVSWYQQHPGKAPKLMICDVNQRPSGVPDRFSGSKSGDAASLTISGLQAEDEADYYCFSYDANYTLGVFGTGTKVTVL
notes: numbers count on: the heavy chain from the first amino acid of its leader peptide; human heavy chain constant domains of the IgG-AbVec expression vector; human lambda light chain constant domain of the Iglambda-AbVec expression vector; Only the heavy chain was mutated; also called cluster D74H//S80 T//W102 L//M112I//G121D//R124P
binds: all assays above

B2: C4.18 (antibody, V domains shown)
VH: EVQLVESGAEVKKPGESLKISCKASGYRFTNYWIGWVRQMPGKGLEWMGIIYPYHSDTQYSPSFQGQVTISADESTTTAYLHLSSLKASDTAIYYCVRLRGDFVPVVFAPYFDSWGQGTLVT
VL: QSALTQPRSVSGSPGQSVTISCTGSRSDAHTFNYVSWYQQHPGKAPKLMICDVNQRPSGVPDRFSGSKSGDAASLTISGLQAEDEADYYCFSYDANYTLGVFGTGTKVTVL
notes: numbers count on: the heavy chain from the first amino acid of its leader peptide; human heavy chain constant domains of the IgG-AbVec expression vector; human lambda light chain constant domain of the Iglambda-AbVec expression vector; Only the heavy chain was mutated; also called cluster D74H//W102 L//M112I//G121D//R124P
binds: all assays above
